Columns and labels:
Assay in all cases: ELISA (FIG. 7)
[1] = biological target: T1, RBD-N439K (Sino biologics, 40592-V08H14) (SARS-CoV-2, UniProt P0DTC2 319-541)
T1 construct: domain: RBD

[2] = biological target: T2, RBD-S477N (Sino biologics, 40592-V08H46) (SARS-CoV-2, UniProt P0DTC2 319-541)
T2 construct: domain: RBD

[3] = biological target: T3, RBD-V367F (Sino biologics, 40592-V08H1) (SARS-CoV-2, UniProt P0DTC2 319-541)
T3 construct: domain: RBD

[4] = biological target: T4, RBD-P479S (Sino biologics, 40592-V08H57) (SARS-CoV-2, UniProt P0DTC2 319-541)
T4 construct: domain: RBD

[5] = biological target: Spike-D614G (Sino biologics, 40589-V08B4) (SARS-CoV-2, UniProt P0DTC2 16-1213)
[6] = biological target: T5, RBD-N501Y (Sino biologics, 40592-V08H82) (SARS-CoV-2, UniProt P0DTC2 319-541)
T5 construct: domain: RBD

[7] = biological target: T6, RBD-T478I (Sino biologics, 40592-V08H30) (SARS-CoV-2, UniProt P0DTC2 319-541)
T6 construct: domain: RBD

[8] = biological target: T7, RBD-A522S (Sino biologics, 40592-V08H21) (SARS-CoV-2, UniProt P0DTC2 319-541)
T7 construct: domain: RBD

Measured: binding result

B1: M5-4 (antibody, V domains shown)
VH: EVQLVESGGGLVKPGGSLRLSCAASGFTFSSRGMSWVRQAPGKGLEWVSTISFGDIYTYYPDSVKGRFTISRDNAKNSLYLQMNSLRAEDTAVYYCARPNDGYFDYWGQGTLVTVSS
VL: DIQMTQSPSSLSASVGDRVTITCKASQSVSNDVAWYQQKPGKAPKLLIYYASNRYTGVPSRFSGSGSGTDFTLTISSLQPEDFATYYCQQSYSAPYTFGGGTKVEIKR
binds: [1] | [2] | [3] | [4] | [5] | [6] | [7] | [8]
